This assay addresses Phospholipid transfer protein (PLTP) in human plasma (human (endogenous in plasma)) (UniProt P55058). The assay can be described thus: co-IP.
Sequence of UniProt P55058 (P55058 18-493): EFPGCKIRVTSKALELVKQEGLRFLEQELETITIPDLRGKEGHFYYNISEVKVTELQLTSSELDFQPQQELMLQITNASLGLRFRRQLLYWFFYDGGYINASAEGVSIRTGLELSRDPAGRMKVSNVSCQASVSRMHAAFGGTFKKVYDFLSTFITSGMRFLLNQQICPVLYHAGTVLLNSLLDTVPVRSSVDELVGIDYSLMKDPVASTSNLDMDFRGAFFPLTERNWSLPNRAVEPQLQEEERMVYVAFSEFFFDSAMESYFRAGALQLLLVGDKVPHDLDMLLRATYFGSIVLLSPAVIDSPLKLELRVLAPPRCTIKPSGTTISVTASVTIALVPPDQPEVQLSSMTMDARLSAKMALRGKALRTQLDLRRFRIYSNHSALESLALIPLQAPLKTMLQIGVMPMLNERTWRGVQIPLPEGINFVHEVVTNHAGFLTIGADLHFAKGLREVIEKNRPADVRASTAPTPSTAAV

Take “Clusterin (apoJ) in human plasma (natural protein)”: the molar ratio of clusterin, PLTP and apoA-I in the isolated PLTP complexes (ELISA) was 5.
